Reference: paper PMC8531669, “Quantitative proteomics identifies the universally conserved ATPase Ola1p as a positive regulator of heat shock response in Saccharomyces cerevisiae” (The Journal of Biological Chemistry, 2021)

Target: the molecule itself
Test: light scattering coupled to nanoDSF; Ola1p (4 μM in Fig. 3G) in 20 mM PIPES pH 7.0, 100 mM KCl, 1 mM TCEP; temperature ramp 0.5 °C/min from 20 °C to 70 °C; read between 38 and 42 °C

B1: Ola1p (natural protein, S. cerevisiae, UniProt P38219 1-394, looked up)
chain: MPPKKQVEEKKVLLGRPGNNLKAGIVGLANVGKSTFFQAITRCPLGNPANYPFATIDPEEARVIVPSPRFDKLCEIYKKTASEVPAHLTVYDIAGLTKGASAGEGLGNAFLSHIRSVDSIYQVVRCFDDAEIIHVEGDVDPVRDLEIINQELRLKDIEFAQKALEGAEKIAKRGGQSLEVKQKKEEMDLITKIIKLLESGQRVANHSWTSKEVEIINSMFLLTAKPCIYLINLSERDYIRKKNKHLLRIKEWVDKYSPGDLIIPFSVSLEERLSHMSPEDAEEELKKLQTISALPKIITTMRQKLDLISFFTCGPDEVREWTIRRGTKAPQAAGVIHNDLMNTFILAQVMKCEDVFEYKDDSAIKAAGKLMQKGKDYVVEDGDIIYFRAGAGKN
notes: Ola1p (Obg-like ATPase 1), S. cerevisiae, systematic name Ybr025c; The methods say that the MBP tag was cleaved with Precision protease; also called Ybr025c; MBP-Ola1p (before cleavage); source: insect cells (baculovirus expression system), purified (amylose resin, size-exclusion chromatography); not shown: MBP, N-terminal, cleaved
binding result: binds
